What all share (experiment): SPR (BIAcore 3000), antibody on chip, sIL-6R analyte, 25 C
On the technique in general: In SPR one partner is held on a chip, and binding of the other changes the refractive index at the surface.

The target of experiment [1] is T1, sIL-6R (soluble IL-6 receptor; SBH Sciences) (human, UniProt P08887 20-365).
T1 construct: also called human IL-6R
T1 sequence: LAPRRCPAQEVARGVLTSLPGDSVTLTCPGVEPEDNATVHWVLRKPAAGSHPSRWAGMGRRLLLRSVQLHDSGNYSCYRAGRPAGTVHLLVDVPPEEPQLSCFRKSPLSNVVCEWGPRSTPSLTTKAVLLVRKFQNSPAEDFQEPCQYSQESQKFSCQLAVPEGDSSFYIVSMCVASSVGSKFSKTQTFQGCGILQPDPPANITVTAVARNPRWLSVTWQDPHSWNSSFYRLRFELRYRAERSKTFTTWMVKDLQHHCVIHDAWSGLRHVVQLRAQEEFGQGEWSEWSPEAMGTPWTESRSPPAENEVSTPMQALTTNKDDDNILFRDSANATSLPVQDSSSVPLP
As to the method: (§1) All SPR measurements were performed on a BIAcore 3000 instrument (GE Biosciences, Piscataway, N.J.). BIAcore Software-BIAcore 3000 Control Software V3.2 was used for the operation and control of the BIAcore 3000 instrument. BiaEvaluation Software V4.1 was used for the analysis of SPR data from the BIAcore 3000 instrument and data was plotted using Graph Pad Prism Software Version 5. […] The indicated antibodies were used as the ligand for the construction of the reference channel of the chip. […] Each sample was injected for 3 min at a flow rate of 30 μL/min to allow for binding to chip-bound antibody. Next, binding buffer without analyte was sent over the chip at the same flow rate to allow for dissociation of bound analyte. After 500s, remaining bound analyte was removed by injecting regeneration solution (1M Formic acid). Data was analyzed by using the Kinetics Wizard and the manual fitting programs that are both included with the BiaEvaluation Software V4.1.

Experiment [2] deals with T1, sIL-6R (soluble IL-6 receptor; SBH …). As to the method:
as §1
The source holds these as a separate data set.

The target is the same in experiment [3]. How it is done:
as §1
The source holds these as a separate data set.

Residue numbers refer to the chain shown, from its start. Where two headings read alike, the source gives them in different places.

B1: 12# (antibody, human IgG1, kappa, V domains shown)
VH: QVQLQESGPGLVRPSQTLSLTCTVSGYSITSDHAWSWVRQPPGRGLEWIGFISYSGITTYNPSLKSRVTMLRDTSKNQFSLRLSSVTAADTAVYYCARCLARATAMDYWGQGSLVTVSS
VL: DIQMTQSPSSLSASVGDRVTITCRASQDISSYLNWYQQKPGKAPKLLIYYTSRLHSGVPSRFSGSGSGTDFTFTISSLQPEDIATYYCQQGNTLPYTFGQGTKVEIKR
notes: also called Sample # 12
A word on the Kd: it is a measure of binding affinity in units of concentration. Higher therefore signals lower affinity. For orientation: koff means the first-order rate constant of dissociation. What is called kon is the second-order rate constant of association. Regarding B1, in experiment [1], binding was characterised by a dissociation constant (Kd) of 0.288 nM, the “Relative Affinity” value was 4.6 fold vs 25 (Tocilizumab), the koff is 8.32e-05 s⁻¹ and the kon worked out at 289000 M⁻¹ s⁻¹. In experiment [2], the Kd worked out at 0.418 nM, the “Relative Affinity” value is 4.1 fold vs 25 (Tocilizumab), the koff turned out to be 0.000126 s⁻¹ and the kon was found to be 302000 M⁻¹ s⁻¹.

B2: 30# (antibody, human IgG1, kappa, V domains shown)
VH: B1 VH with I57M, A103T
VL: B1 VL
notes: also called Sample # 30
For B2, in experiment [1], the affinity, expressed as Kd, was 0.235 nM; the “Relative Affinity” value is 5.7 fold vs 25 (Tocilizumab); the off-rate constant (koff) is 7.03e-05 s⁻¹; the kon was determined as 299000 M⁻¹ s⁻¹. In addition, in experiment [2], the Kd stood at 0.255 nM, the “Relative Affinity” value is 6.7 fold vs 25 (Tocilizumab), the koff is 8.33e-05 s⁻¹ and the kon is 327000 M⁻¹ s⁻¹.

B3: 56# (antibody, human IgG1, kappa, V domains shown)
VH: B1 VH with I57M, T58I, C99S, A103I
VL: B1 VL
notes: also called Sample # 56
Regarding B3, in experiment [3], the Kd is 0.243 nM, the “Relative Affinity” value was 11.7 fold vs 25 (Tocilizumab), the koff was 5.59e-05 s⁻¹ and the kon was found to be 230000 M⁻¹ s⁻¹.

B4: 15# (antibody, human IgG1, kappa, V domains shown)
VH: B1 VH with A103I
VL: B1 VL
notes: also called Sample # 15
As for B4, in experiment [1], the equilibrium dissociation constant (Kd) was 0.145 nM, the “Relative Affinity” value was 9.2 fold vs 25 (Tocilizumab), the off-rate constant (koff) was found to be 4.49e-05 s⁻¹ and the kon is 310000 M⁻¹ s⁻¹. In addition, in experiment [2], the affinity, expressed as Kd, was 0.2 nM; the “Relative Affinity” value is 8.6 fold vs 25 (Tocilizumab); the dissociation rate constant (koff) turned out to be 5.97e-05 s⁻¹; the association rate constant (kon) is 298000 M⁻¹ s⁻¹.

B5: 27# (antibody, human IgG1, kappa, V domains shown)
VH: B1 VH with I57M, C99S
VL: B1 VL
notes: also called Sample # 27
For the molecule B5, in experiment [1], the Kd was 0.102 nM, the “Relative Affinity” value is 13.1 fold vs 25 (Tocilizumab), the off-rate constant (koff) came out at 3.46e-05 s⁻¹ and the kon amounted to 339000 M⁻¹ s⁻¹. Moreover, in experiment [2], the affinity, expressed as Kd, was 0.126 nM; the “Relative Affinity” value was 13.6 fold vs 25 (Tocilizumab); the koff is 4.27e-05 s⁻¹; the kon worked out at 339000 M⁻¹ s⁻¹.

B6: 17# (antibody, human IgG1, kappa, V domains shown)
VH: B1 VH with A103T
VL: B1 VL
notes: also called Sample # 17
B6: in experiment [1], binding was put at a Kd of 0.304 nM, the “Relative Affinity” value was 4.4 fold vs 25 (Tocilizumab), the koff was 8.71e-05 s⁻¹ and the kon turned out to be 287000 M⁻¹ s⁻¹. Besides, in experiment [2], binding was characterised by a dissociation constant (Kd) of 0.354 nM, the “Relative Affinity” value is 4.8 fold vs 25 (Tocilizumab), the off-rate (koff) was 0.000117 s⁻¹ and the kon amounted to 331000 M⁻¹ s⁻¹.

B7: 51# (antibody, human IgG1, kappa, V domains shown)
VH: B1 VH with F51Y, A103M
VL: B1 VL
notes: also called Sample # 51
B7: in experiment [3], the Kd amounted to 0.42 nM, the “Relative Affinity” value is 6.8 fold vs 25 (Tocilizumab), the koff turned out to be 5.72e-05 s⁻¹ and the kon worked out at 136000 M⁻¹ s⁻¹.

B8: 31# (antibody, human IgG1, kappa, V domains shown)
VH: B1 VH with I57M, C99S, A103I
VL: B1 VL
notes: also called Sample # 31
On to B8, for which, in experiment [1], the affinity, expressed as Kd, was 0.1 nM; the “Relative Affinity” value was 13.4 fold vs 25 (Tocilizumab); the koff turned out to be 2.92e-05 s⁻¹; the kon worked out at 292000 M⁻¹ s⁻¹. For the same molecule, in experiment [2], the Kd was found to be 0.156 nM, the “Relative Affinity” value is 11 fold vs 25 (Tocilizumab), the koff is 5.99e-05 s⁻¹ and the kon came out at 385000 M⁻¹ s⁻¹.

B9: 49# (antibody, human IgG1, kappa, V domains shown)
VH: B1 VH with F51Y, P62A, C99S, A103T
VL: B1 VL
notes: also called Sample # 49
For the molecule B9, in experiment [3], the Kd is 1.65 nM, the “Relative Affinity” value was 1.7 fold vs 25 (Tocilizumab), the off-rate constant (koff) was 0.000218 s⁻¹ and the kon worked out at 132000 M⁻¹ s⁻¹.

B10: 28# (antibody, human IgG1, kappa, V domains shown)
VH: B1 VH with I57M, C99S, A103T
VL: B1 VL
notes: also called Sample # 28
Take B10: in experiment [1], the equilibrium dissociation constant (Kd) was 0.268 nM, the “Relative Affinity” value is 5 fold vs 25 (Tocilizumab), the off-rate constant (koff) was found to be 7.61e-05 s⁻¹ and the kon turned out to be 284000 M⁻¹ s⁻¹. For the same molecule, in experiment [2], the dissociation constant (Kd) turned out to be 0.408 nM, the “Relative Affinity” value is 4.2 fold vs 25 (Tocilizumab), the koff was found to be 0.000148 s⁻¹ and the kon was 363000 M⁻¹ s⁻¹.

B11: 14# (antibody, human IgG1, kappa, V domains shown)
VH: B1 VH with C99S, A103I
VL: B1 VL
notes: also called Sample # 14
As for B11, in experiment [1], the Kd amounted to 0.181 nM, the “Relative Affinity” value is 7.4 fold vs 25 (Tocilizumab), the koff was determined as 5.69e-05 s⁻¹ and the kon came out at 314000 M⁻¹ s⁻¹. In experiment [2], the Kd was determined as 0.261 nM, the “Relative Affinity” value was 6.6 fold vs 25 (Tocilizumab), the koff is 9.75e-05 s⁻¹ and the kon was 374000 M⁻¹ s⁻¹.

B12: 60# (antibody, human IgG1, kappa, V domains shown)
VH: B1 VH with I57M, C99S, A103I
VL: B1 VL
notes: also called Sample # 60
Take B12: in experiment [3], the affinity, expressed as Kd, was 0.205 nM; the “Relative Affinity” value was 13.9 fold vs 25 (Tocilizumab); the koff was 4.59e-05 s⁻¹; the kon came out at 224000 M⁻¹ s⁻¹.

B13: 18# (antibody, human IgG1, kappa, V domains shown)
VH: B1 VH with A103I
VL: B1 VL
notes: also called Sample # 18
Consider B13, for which, in experiment [1], the Kd came to 0.141 nM, the “Relative Affinity” value is 9.5 fold vs 25 (Tocilizumab), the koff is 4.73e-05 s⁻¹ and the kon came out at 335000 M⁻¹ s⁻¹. In experiment [2], the equilibrium dissociation constant (Kd) turned out to be 0.167 nM, the “Relative Affinity” value was 10.2 fold vs 25 (Tocilizumab), the koff came out at 5.42e-05 s⁻¹ and the kon amounted to 325000 M⁻¹ s⁻¹.

B14: 24# (antibody, human IgG1, kappa, V domains shown)
VH: B1 VH with F51Y, A103I
VL: B1 VL
notes: also called Sample # 24
Consider B14, for which, in experiment [1], binding was characterised by a dissociation constant (Kd) of 0.281 nM, the “Relative Affinity” value was 4.8 fold vs 25 (Tocilizumab), the koff came out at 7.13e-05 s⁻¹ and the kon stood at 254000 M⁻¹ s⁻¹. In addition, in experiment [2], the affinity, expressed as Kd, was 0.317 nM; the “Relative Affinity” value is 5.4 fold vs 25 (Tocilizumab); the koff came out at 7.99e-05 s⁻¹; the kon was found to be 252000 M⁻¹ s⁻¹.

B15: 62# (antibody, human IgG1, kappa, V domains shown)
VH: B1 VH with I57M
VL: B1 VL
notes: also called Sample # 62
For B15, in experiment [3], the Kd stood at 0.0258 nM, the “Relative Affinity” value is 110 fold vs 25 (Tocilizumab), the koff worked out at 6.61e-06 s⁻¹ and the kon came out at 256000 M⁻¹ s⁻¹.

B16: 16# (antibody, human IgG1, kappa, V domains shown)
VH: B1 VH with C99S, A103I
VL: B1 VL
notes: also called Sample # 16
B16: in experiment [1], the Kd turned out to be 0.136 nM, the “Relative Affinity” value is 9.8 fold vs 25 (Tocilizumab), the koff stood at 4.04e-05 s⁻¹ and the kon was 296000 M⁻¹ s⁻¹. In experiment [2], the equilibrium dissociation constant (Kd) came out at 0.187 nM, the “Relative Affinity” value was 9.1 fold vs 25 (Tocilizumab), the koff came to 6.3e-05 s⁻¹ and the kon was 336000 M⁻¹ s⁻¹.

These data come from patent US20190315854A1 (BEIJING VDJBIO, published 2019).
